# Laboratory results published in paper PMC7749166 (Communications Biology, 2020).
# T1: human C5aR (C5aR^WT) (Homo sapiens, UniProt P21730)
# T1 construct: Flag (N); made in house; host or cells: HEK-293S GnTI- cells (BacMam baculovirus)
# T1 sequence (P21730 1-350): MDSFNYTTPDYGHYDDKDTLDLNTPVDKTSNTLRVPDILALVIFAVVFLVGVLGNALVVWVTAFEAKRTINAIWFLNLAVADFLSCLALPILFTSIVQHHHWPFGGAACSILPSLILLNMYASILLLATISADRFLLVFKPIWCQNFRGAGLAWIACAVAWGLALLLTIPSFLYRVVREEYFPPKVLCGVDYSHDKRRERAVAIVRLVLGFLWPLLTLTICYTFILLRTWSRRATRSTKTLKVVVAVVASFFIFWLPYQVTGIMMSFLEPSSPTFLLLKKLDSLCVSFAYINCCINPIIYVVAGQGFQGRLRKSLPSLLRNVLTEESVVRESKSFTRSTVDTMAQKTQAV
# Assays:
# [1] = system: human C5aR (C5aR^WT); assay: FD-/FV-based AFM dynamic force spectroscopy (FNdY model) of ligand-functionalized tip vs wild-type C5aR; assay type: binding; conditions: sum of C5aR + PMX53 and C5aR∆Tyr values
# Description: (§1) The reconstituted C5aR sample solution (either wt-C5aR or mutants) was 20-fold diluted in fusion buffer solution (20 mM HEPES, 300 mM NaCl, and 25 mM MgCl2) and adsorbed on freshly cleaved mica for 15 min. After rinsing with imaging buffer (20 mM HEPES and 300 mM NaCl) the sample was transferred to the AFM.
# (§2) Rectangular Si3N4 AFM cantilevers with silicon tips (BioLever mini, Bruker) were first cleaned with chloroform for 10 min, rinsed with ethanol, N2 dried, and then cleaned for 15 min in an ultraviolet radiation and ozone cleaner (UV-O, Jetlight, CA, USA). For the aminofunctionalization, the cantilevers were immersed in an ethanolamine solution (3.3 g ethanolamine in 6.6 ml DMSO) overnight and then rinsed in DMSO (3 × 1 min) and ethanol (3 × 1 min), followed by N2 drying. This was followed by the N-hydroxysuccinimide (NHS)-PEG27-acetal linker attachment. A 1 mg portion of the NHS-PEG27-acetal linker (JKU, Linz, Austria) was diluted in 0.5 ml chloroform with 30 µl triethylamine and the cantilevers were immersed in this solution for 2 h. After three rinsing steps of 10 min in chloroform and N2 drying, the cantilevers were immersed in a 1% citric acid solution for 10 min, rinsed with pure water (3 × 5 min), and dried with N2 once more. tris-NTA-derivatized AFM cantilevers were obtained by pipetting 100 µl of a 100 µM tris-N-nitrilotriacetic amine trifluoroacetate (Toronto Research Chemicals, Canada) (tris-NTA) solution onto the cantilevers, followed by the addition of 2 μl of a freshly prepared 1 M NaCNBH3 solution. The cantilevers were incubated for 1 h, then 5 μl of a 1 M ethanolamine solution pH 8.0 was added for 10 min to quench the reaction. tris-NTA cantilevers were further used to obtain C5a-derivatized tips. For this purpose, 100 μl of a 1 μM C5a protein solution was premixed with 5 μl NiCl2 5 mM and the mixture was pipetted onto the tris-NTA cantilevers. After 2 h of incubation time, the cantilevers were washed in HEPES buffer 3 × 5 min.
# (§3) (JKU, Linz, Austria) dissolved in 0.5 ml of chloroform with 30 μl of triethylamine, then washed with chloroform and dried with N2. […] After 3 h of reaction, cantilevers were washed with PBS 3 × 5 min.
# (§4) AFM experiments were performed with a Multimode 8 AFM equipped with a Nanoscope V controller (Bruker, Santa Barbara, CA, USA) operated in “PeakForce Tapping QNM mode”. All measurements were carried out in imaging buffer at room temperature (≈24 °C). For the high-resolution characterization of C5aR topographical features, triangular Si3N4 cantilevers (Scanasyst-Fluid+, Bruker) with a sharpened tetrahedral silicon tip of ≈2 nm radius, nominal spring constants of 0.35 N m^−1, and resonance frequency in liquid of ≈75 kHz were used. Multiparametric FD-based AFM measurements with derivatized tips were carried out using BioLever mini cantilevers (Bruker, Santa Barbara) having nominal spring constants of 0.1 N m^−1 and resonance frequency in liquid of ≈25 kHz. The spring constant was calibrated at the end of each experiment for all cantilevers used in this study using the thermal noise method.
# (§5) In FD-based AFM measurements, the AFM cantilever is oscillated in a sinusoidal manner well below its resonance frequency, while the sample surface is contoured pixel-by-pixel. For each approach–retraction cycle of the oscillating cantilever, a force–distance curve is recorded. Multiparametric FD-based AFM height, Young’s modulus, and adhesion maps are then obtained from a pixel-by-pixel reconstruction of the acquired data. Overview FD-based AFM maps were acquired by scanning the sample at 1 Hz and a resolution of 512 × 512 pixels, using a force setpoint of ≈150 pN, a 2 kHz oscillation frequency, and a peak-to-peak oscillation amplitude of 100 nm. Adhesion maps were recorded using a scan rate of 0.2 Hz and 256 × 256 pixels. The functionalized AFM cantilever was oscillated at 0.25 kHz with peak-to-peak oscillation amplitudes of 100 nm.
# [2] = molecular target: T1, human C5aR (C5aR^WT); assay: as above; assay type: binding; conditions: FNdY fit
# Description: as §1, §2, §3, §4, §5
# [3] = C5a tip vs C5aR^WT incubated with PMX53 (effector site blocked; probes binding site), ± s.e.m.
molecule,measurement,setting,value
"C5a: C5a, a large 74-amino acid glycoprotein; endogenous ligand of C5aR (His6-tag at N-terminal end for AFM tips) (protein, left off: His6, N-terminal, kept) TLQKKIEEIAAKYKHSVVKKCCYDGACVNNDETCEQRAARISLGPRCIKAFTECCVVASQLRANISHKDMQLGR","sum of binding free energy of both sites measured individually, ΔGbu (binding site+effector site)",[1],~-8.6 ± 2.3 kcal/mol
same,residence time τ0.5,[2]; C5a tip vs C5aR^WT incubated with PMX53 (effector site blocked; probes binding site),0.2 ms
same,equilibrium force Feq,[2]; [3],29 ± 4 pN
same,free energy ΔGbu,[2]; [3],-3.9 ± 1.8 kcal/mol
same,binding equilibrium free energy ΔGbu,"[2]; ± s.e.m., ligand-derivatized AFM tip, 20 mM HEPES, 300 mM NaCl, ≈24 °C",-13.6 ± 4.1 kcal/mol
same,equilibrium force Feq,"[2]; ± s.e.m., ligand-derivatized AFM tip, C5aR in DOPC/CHS liposomes on mica, 20 mM HEPES, 300 mM NaCl, ≈24 °C",46 ± 7 pN
same,residence time τ0.5,"[2]; ligand-derivatized AFM tip, 20 mM HEPES, 300 mM NaCl, ≈24 °C",0.6 ms
